Results from the supplement of paper PMC7877785.
± gives the uncertainty stated by the source.

Test: self-splicing fitness, log relative to wild type (ln ratio); higher = more splicing; Tetrahymena group I intron in knt gene, E. coli kanamycin selection, DiMSum; sequences stand for … in CUCUCU…GGAGGGAAAAGUUAUCAGGCAUGCACCUGGUAGCUAGUCUUUAAACCAAUAGAUUGCAUCGGUUUAAAAGGCAAGACCGUCAAAUUGCGGGAAAGGGGUCAACAGCCGUUCAGUACCAAGUCUCAGGGGAAACUUUGAGAUGGCCUUGCAAAGGGUAUGGUAAUAAGCUGACGGACAUGGUCCUAACCACGCAGCCAAGUCCUAAGUCAACAGAUCUUCUGUUGAUAUGGAUGCAGUUCACAGACUAAAUGUCGGUCGGGGAAGAUGUAUUCUUCUCAUAAGAUAUAGUCGGACCUCUCCUUAAUGGGAGCUAGCGGAUGAAGUGAUGCAACACUGGAGCCGCUGGGAACUAAUUUGUAUGCGAAAGUAUAUUGAUUAGUUUUGGAGUACUCGUGGUCG
In short: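 The eight P1ex-region nucleotides of an intron in the knt kanamycin-resistance gene on pET-22b(+) were all randomised and the library put into E. coli BL21(DE3). Six replicate transformations were grown overnight at 37°C or 30°C on LB agar with or without 25 μg/mL kanamycin, together with 100 μg/mL carbenicillin, 50 μM IPTG and 0.2% rhamnose. Colonies were pooled and amplicon-sequenced on an Illumina HiSeq 2500. Fitness from DiMSum is the error-weighted combination of wild-type-normalised replicate fold changes, kanamycin over none.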

| Sequence | self-splicing fitness (ln) (30 °C) | self-splicing fitness (ln) (37 °C) |
| --- | --- | --- |
| GUCGAGCAAUAUUACGGUUU | -1.86 ± 0.11 | -1.44 ± 0.13 |
| GAGUAGCAAUAUUACGUGAU | -3.6 ± 0.33 | -2.12 ± 0.34 |
| GUGAAGCAAUAUUACGAUGG | -2.31 ± 0.11 | 0.388 ± 0.13 |
| GUAUAGCAAUAUUACGGUCC | -0.391 ± 0.28 | -1.19 ± 0.46 |
| GUAGAGCAAUAUUACGUCGG | -1.87 ± 0.15 | -1.61 ± 0.22 |
| ACCCAGCAAUAUUACGCGGC | -2.93 ± 0.17 | -2.76 ± 0.26 |
| AGCAAGCAAUAUUACGGCUU | -3.17 ± 0.18 | -0.891 ± 0.12 |
| UUAUAGCAAUAUUACGUGUU | -4.16 ± 0.33 | -3.11 ± 0.33 |
| UAAUAGCAAUAUUACGUUUA | -1.86 ± 0.15 | -1.81 ± 0.12 |
| UGAUAGCAAUAUUACGACAG | -1.41 ± 0.11 | -1.59 ± 0.1 |
| CGAAAGCAAUAUUACGGCCU | -1.32 ± 0.068 | -0.274 ± 0.082 |
| UAUUAGCAAUAUUACGCGGU | -3.62 ± 0.36 | -1.8 ± 0.37 |
| AGGAAGCAAUAUUACGCUAU | -3.03 ± 0.21 | -2.35 ± 0.2 |
| UUCAAGCAAUAUUACGCGGU | -2.91 ± 0.17 | -1.96 ± 0.17 |
| AUGUAGCAAUAUUACGAUGU | -0.753 ± 0.064 | -0.0629 ± 0.087 |
| GUCGAGCAAUAUUACGAAGA | -3.82 ± 0.43 | -1.74 ± 0.31 |
| AGAUAGCAAUAUUACGACGA | -0.422 ± 0.095 | -0.749 ± 0.085 |
| UCGGAGCAAUAUUACGUAAG | -2.77 ± 0.46 | -1.39 ± 0.42 |
| ACUCAGCAAUAUUACGUUGC | -3.43 ± 0.16 | -3.57 ± 0.26 |
| CCAAAGCAAUAUUACGAAGG | -3.61 ± 0.15 | -2.9 ± 0.3 |
| CAUGAGCAAUAUUACGAAGC |  | -0.241 ± 0.49 |
| AUAUAGCAAUAUUACGAGAC | -3.02 ± 0.39 | -1.61 ± 0.49 |
| GAUGAGCAAUAUUACGAUAG | -3.33 ± 0.16 | -2.42 ± 0.17 |
| CGCAAGCAAUAUUACGUGGC | -3.9 ± 0.2 | -1.93 ± 0.17 |

| Sequence | self-splicing fitness (ln) (30 °C) | self-splicing fitness (ln) (37 °C) |
| --- | --- | --- |
| UUUAAGCAAUAUUACGGGUU | -2.83 ± 0.3 | -1.67 ± 0.22 |
| AUUGAGCAAUAUUACGAUCC | -1.32 ± 0.4 |  |
| GGCAAGCAAUAUUACGCCCG | -2.21 ± 0.45 |  |
| CCACAGCAAUAUUACGAACA | -2.78 ± 0.24 | -2.33 ± 0.29 |
| ACAGAGCAAUAUUACGGUAU | -4.21 ± 0.36 | -3.75 ± 0.26 |
| CCUUAGCAAUAUUACGCGGU | -3.78 ± 0.36 |  |
| ACGCAGCAAUAUUACGCCCU | -0.193 ± 0.12 | 0.187 ± 0.12 |
| GGACAGCAAUAUUACGAACU | -0.198 ± 0.08 | 0.442 ± 0.083 |
| UUCCAGCAAUAUUACGUUAG | -2.57 ± 0.17 | -0.904 ± 0.16 |
| AAUGAGCAAUAUUACGCCAC | -1.83 ± 0.22 | -2.41 ± 0.49 |
| AUCUAGCAAUAUUACGCGUC | -3.53 ± 0.39 | -1.07 ± 0.18 |
| CGGAAGCAAUAUUACGCUUU | -2.02 ± 0.18 | -3.26 ± 0.33 |
| CCGUAGCAAUAUUACGGCUA | -3.49 ± 0.34 | -3.04 ± 0.35 |
| GCCAAGCAAUAUUACGGGAA | -0.356 ± 0.064 | -0.585 ± 0.079 |
| CUAAAGCAAUAUUACGGGGG | -1.87 ± 0.13 | -1.15 ± 0.13 |
| UGCUAGCAAUAUUACGCUCA | -0.263 ± 0.15 | 0.646 ± 0.16 |
| ACAAAGCAAUAUUACGCAAG | -1.45 ± 0.079 | 0.00248 ± 0.087 |
| GAUGAGCAAUAUUACGAGUA | -3.4 ± 0.43 | -1.92 ± 0.2 |
| ACGGAGCAAUAUUACGCUCU | -3.26 ± 0.32 | -1.22 ± 0.3 |
| CCUCAGCAAUAUUACGGAUA | -1.87 ± 0.15 | -2.41 ± 0.24 |
| AACUAGCAAUAUUACGUACG | -1.15 ± 0.079 | -0.237 ± 0.096 |
| GGGCAGCAAUAUUACGCGCA | -0.298 ± 0.13 | -0.184 ± 0.13 |
| GAUCAGCAAUAUUACGAAGA | -0.925 ± 0.11 | -0.0626 ± 0.11 |
| AUUAAGCAAUAUUACGAAAC | -3.37 ± 0.16 | -1.6 ± 0.15 |

| Sequence | self-splicing fitness (ln) (30 °C) | self-splicing fitness (ln) (37 °C) |
| --- | --- | --- |
| UACCAGCAAUAUUACGGAGA | -1.13 ± 0.07 | -0.596 ± 0.073 |
| CCAAAGCAAUAUUACGCUCU | -3.95 ± 0.27 | -2.95 ± 0.23 |
| CUUUAGCAAUAUUACGUGUA | -3.34 ± 0.19 | -2.81 ± 0.24 |
| CGGAAGCAAUAUUACGUAUA | -2.82 ± 0.24 | -2.63 ± 0.3 |
| AACUAGCAAUAUUACGUAGU | -2.24 ± 0.084 | -1.39 ± 0.12 |
| GAUUAGCAAUAUUACGAGUC | -3.17 ± 0.27 | -2.58 ± 0.33 |
| GACUAGCAAUAUUACGAAAU | -1.07 ± 0.16 | 0.651 ± 0.26 |
| UUUUAGCAAUAUUACGGUCC | -2.8 ± 0.5 | -1.73 ± 0.43 |
| AAGUAGCAAUAUUACGCAGC | -3.59 ± 0.34 | -2.3 ± 0.24 |
| AUUCAGCAAUAUUACGGGCU | -2.2 ± 0.12 | -1.38 ± 0.12 |
| CUCAAGCAAUAUUACGCUGU | -3.74 ± 0.21 | -1.59 ± 0.23 |
| UGUAAGCAAUAUUACGUUUC | -3.11 ± 0.22 | -3.02 ± 0.43 |
| AUUCAGCAAUAUUACGACCG | 0.174 ± 0.18 | -0.187 ± 0.27 |
| CUGAAGCAAUAUUACGGGAG | -0.441 ± 0.067 | -0.168 ± 0.078 |
| GGCUAGCAAUAUUACGGCAU | -0.0766 ± 0.11 | 0.833 ± 0.13 |
| GUGAAGCAAUAUUACGUCCC | -1.28 ± 0.35 | -0.367 ± 0.2 |
| GUAGAGCAAUAUUACGAACG | -2.44 ± 0.22 | -1.38 ± 0.2 |
| AGAAAGCAAUAUUACGCGUU | -2.71 ± 0.16 | -2.34 ± 0.17 |
| ACUGAGCAAUAUUACGGGGU | -2.72 ± 0.14 | -3.13 ± 0.28 |
| GAAAAGCAAUAUUACGAGAG | -3.43 ± 0.28 | -2.48 ± 0.21 |
| UAAAAGCAAUAUUACGUGGC | -3.46 ± 0.2 | -2.74 ± 0.2 |
| AUCGAGCAAUAUUACGGCCU | -3.22 ± 0.3 | -1.2 ± 0.17 |
| UACUAGCAAUAUUACGCCUG | -0.00481 ± 0.11 | 1.03 ± 0.14 |
| CCUUAGCAAUAUUACGUCUA |  | -2.65 ± 0.23 |

| Sequence | self-splicing fitness (ln) (30 °C) | self-splicing fitness (ln) (37 °C) |
| --- | --- | --- |
| GAAUAGCAAUAUUACGAUAU | -1.43 ± 0.068 | -0.744 ± 0.085 |
| CGCCAGCAAUAUUACGAGGA | -3.07 ± 0.19 | -2.41 ± 0.22 |
| GCAUAGCAAUAUUACGCGCG | -1.06 ± 0.079 | -0.259 ± 0.092 |
| GAUUAGCAAUAUUACGGUGC | -1.8 ± 0.34 | -1.4 ± 0.32 |
| GGCCAGCAAUAUUACGCCCC | -1.65 ± 0.17 | -0.851 ± 0.26 |
| GUCUAGCAAUAUUACGUAAU | -0.317 ± 0.1 | 0.597 ± 0.12 |
| CCCGAGCAAUAUUACGUGUG | -3.24 ± 0.12 | -1.86 ± 0.098 |
| AAGGAGCAAUAUUACGGGGG | -2.94 ± 0.19 | -0.0467 ± 0.21 |
| GGGCAGCAAUAUUACGAUCU | -0.541 ± 0.092 | 0.124 ± 0.12 |
| UUUAAGCAAUAUUACGUAAG | -0.0425 ± 0.074 | 0.296 ± 0.094 |
| GGUGAGCAAUAUUACGACGG | -2.18 ± 0.29 | -1.74 ± 0.3 |
| AGAUAGCAAUAUUACGAUCU | -1.53 ± 0.14 | -0.462 ± 0.17 |
| CGCAAGCAAUAUUACGAAUC | -4.8 ± 0.38 | -1.29 ± 0.18 |
| ACGCAGCAAUAUUACGGCAG | -1.22 ± 0.093 | -1.08 ± 0.15 |
| AUACAGCAAUAUUACGGGGC | -2.65 ± 0.12 | -3.57 ± 0.2 |
| UGAUAGCAAUAUUACGUGCA | -0.486 ± 0.054 | 0.164 ± 0.076 |
| CGACAGCAAUAUUACGCUAG | -3.79 ± 0.25 | -2.04 ± 0.16 |
| AAUGAGCAAUAUUACGAAGG | -2.56 ± 0.43 | -3.54 ± 0.43 |
| GUCCAGCAAUAUUACGGUCU | -2.7 ± 0.12 | -1.2 ± 0.12 |
| CGGUAGCAAUAUUACGGAUC | -4.27 ± 0.33 | -1.68 ± 0.23 |
| GCAAAGCAAUAUUACGUUCU | -1.44 ± 0.094 | -0.638 ± 0.097 |
| GCACAGCAAUAUUACGCCUU | -0.943 ± 0.092 | -0.623 ± 0.087 |
| AUUAAGCAAUAUUACGGAAU | -1.3 ± 0.14 | -1.3 ± 0.18 |
| ACCAAGCAAUAUUACGGAUG | -2.47 ± 0.069 | -2.48 ± 0.088 |
